According to patent publication US20210371518A1 (University of Texas, published 2021):
Values joined by “and” are separate entries in the source; they are usually repeats but may differ in a detail not shown here. Identical values can stand only once.

Tests used:
[1] = target: T1, human LILRB4 extracellular domain (ECD) recombinant protein (human, UniProt Q8NHJ6 22-259); experiment: Octet
T1 construct: extracellular domain; also called LILRB4 ECD; LILRB4-ECD

[2] = target: T1, human LILRB4 extracellular domain (ECD) …; experiment: ELISA
[3] = target: LILRA1 (human (not printed on the sheet), UniProt O75019); experiment: LILR reporter cells on coated antibody, GFP positive (%)
Experimental: (§1) FIGS. 41A-41M illustrate specific binding of h193 antibodies to LILRB4 protein. FIGS. 41A-41L illustrate the specificity of h193 antibodies determined by LILR reporter assays, in which LILR reporter cells are added to the plates coated with h193 antibodies. The binding of h193 antibodies to the ECD of the LILR member on the surface of the reporter cells induced GFP signal. FIG. 41M illustrates the specificity of an exemplary h193 antibody determined by ELISA. LILRA and LILRB recombinant proteins were coated on high absorption 96-well plates. Serial diluted (5-fold) mAb h193 were added to the coated/blocked plates and detected using goat anti-human IgG F(ab)2 conjugated HRP as secondary antibody.

[4] = target: LILRA2 (human (not printed on the sheet), UniProt Q8N149); experiment: as above
Experimental: as §1

[5] = target: LILRA5 (human (not printed on the sheet), UniProt A6NI73); experiment: as above
Experimental: as §1

[6] = target: LILRB3 (human (not printed on the sheet), UniProt O75022); experiment: as above
Experimental: as §1

[7] = target: LILRB2 (human (not printed on the sheet), UniProt Q8N423); experiment: as above
Experimental: as §1

[8] = target: LILRA6 (human (not printed on the sheet), UniProt Q6PI73); experiment: as above
Experimental: as §1

[9] = target: LILRB5 (human (not printed on the sheet), UniProt O75023); experiment: as above
Experimental: as §1

[10] = target: LILRA4 (human (not printed on the sheet), UniProt P59901); experiment: as above
Experimental: as §1

[11] = target: LILRA3 (human (not printed on the sheet), UniProt Q8N6C8); experiment: as above
Experimental: as §1

[12] = target: LILRB1 (human (not printed on the sheet), UniProt Q8NHL6); experiment: as above
Experimental: as §1

Chain of LILRA1 (O75019 17-461 limits assumed): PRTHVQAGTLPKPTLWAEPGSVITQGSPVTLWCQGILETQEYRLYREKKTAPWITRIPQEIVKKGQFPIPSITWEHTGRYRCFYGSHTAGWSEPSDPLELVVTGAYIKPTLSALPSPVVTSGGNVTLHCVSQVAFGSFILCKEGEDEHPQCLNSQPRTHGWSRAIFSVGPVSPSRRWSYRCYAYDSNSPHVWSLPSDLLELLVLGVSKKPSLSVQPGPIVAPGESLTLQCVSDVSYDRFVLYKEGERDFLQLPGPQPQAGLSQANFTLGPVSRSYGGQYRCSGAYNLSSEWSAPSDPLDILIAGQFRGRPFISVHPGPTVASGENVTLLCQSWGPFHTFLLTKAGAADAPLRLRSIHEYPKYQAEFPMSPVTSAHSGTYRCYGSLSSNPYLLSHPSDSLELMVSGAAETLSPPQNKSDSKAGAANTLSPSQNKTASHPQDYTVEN
Chain of LILRA4 (P59901 24-446 limits assumed): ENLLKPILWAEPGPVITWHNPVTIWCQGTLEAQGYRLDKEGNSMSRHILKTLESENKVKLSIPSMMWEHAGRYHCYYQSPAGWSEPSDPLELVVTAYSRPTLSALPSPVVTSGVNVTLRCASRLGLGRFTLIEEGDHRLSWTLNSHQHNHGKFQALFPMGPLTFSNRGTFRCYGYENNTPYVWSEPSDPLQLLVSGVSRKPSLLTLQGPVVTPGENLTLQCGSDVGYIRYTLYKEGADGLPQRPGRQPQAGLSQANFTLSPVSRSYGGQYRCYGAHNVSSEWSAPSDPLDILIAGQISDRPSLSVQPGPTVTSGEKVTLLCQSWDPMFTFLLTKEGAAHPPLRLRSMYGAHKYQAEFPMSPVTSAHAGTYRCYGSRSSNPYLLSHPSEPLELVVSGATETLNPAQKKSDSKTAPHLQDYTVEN
Chain of LILRB5 (O75023 24-458 limits assumed): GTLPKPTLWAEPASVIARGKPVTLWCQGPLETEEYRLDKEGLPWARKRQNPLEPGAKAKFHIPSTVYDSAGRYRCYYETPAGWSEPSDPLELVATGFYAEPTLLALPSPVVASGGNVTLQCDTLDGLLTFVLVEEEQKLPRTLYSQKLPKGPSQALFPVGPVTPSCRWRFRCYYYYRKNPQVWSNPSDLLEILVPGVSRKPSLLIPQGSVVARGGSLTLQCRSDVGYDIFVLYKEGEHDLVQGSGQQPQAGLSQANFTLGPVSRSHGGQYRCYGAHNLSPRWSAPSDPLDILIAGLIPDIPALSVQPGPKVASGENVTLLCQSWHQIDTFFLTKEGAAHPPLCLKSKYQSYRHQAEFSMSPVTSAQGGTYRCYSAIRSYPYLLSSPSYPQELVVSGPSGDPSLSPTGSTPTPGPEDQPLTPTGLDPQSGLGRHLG
Chain of LILRA3 (Q8N6C8 24-439 limits assumed): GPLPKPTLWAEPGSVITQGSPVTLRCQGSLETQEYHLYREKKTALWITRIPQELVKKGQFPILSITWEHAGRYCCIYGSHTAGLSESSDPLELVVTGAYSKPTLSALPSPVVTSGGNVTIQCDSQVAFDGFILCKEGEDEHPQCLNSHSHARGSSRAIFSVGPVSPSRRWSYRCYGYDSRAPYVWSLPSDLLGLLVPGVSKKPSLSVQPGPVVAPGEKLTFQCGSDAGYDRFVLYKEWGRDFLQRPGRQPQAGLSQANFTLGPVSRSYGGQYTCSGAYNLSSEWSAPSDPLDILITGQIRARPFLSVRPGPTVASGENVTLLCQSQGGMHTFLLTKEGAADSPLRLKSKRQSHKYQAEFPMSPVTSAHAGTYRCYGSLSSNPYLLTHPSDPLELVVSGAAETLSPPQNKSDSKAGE
Chain of LILRA5 (A6NI73 42-268 limits assumed): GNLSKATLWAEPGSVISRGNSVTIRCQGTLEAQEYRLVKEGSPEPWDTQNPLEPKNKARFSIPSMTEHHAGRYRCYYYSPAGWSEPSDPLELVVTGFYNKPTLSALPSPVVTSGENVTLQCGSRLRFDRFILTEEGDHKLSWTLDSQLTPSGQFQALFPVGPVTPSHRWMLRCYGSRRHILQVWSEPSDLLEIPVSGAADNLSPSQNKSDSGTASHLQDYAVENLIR
Chain of LILRA2 (Q8N149 24-449 limits assumed): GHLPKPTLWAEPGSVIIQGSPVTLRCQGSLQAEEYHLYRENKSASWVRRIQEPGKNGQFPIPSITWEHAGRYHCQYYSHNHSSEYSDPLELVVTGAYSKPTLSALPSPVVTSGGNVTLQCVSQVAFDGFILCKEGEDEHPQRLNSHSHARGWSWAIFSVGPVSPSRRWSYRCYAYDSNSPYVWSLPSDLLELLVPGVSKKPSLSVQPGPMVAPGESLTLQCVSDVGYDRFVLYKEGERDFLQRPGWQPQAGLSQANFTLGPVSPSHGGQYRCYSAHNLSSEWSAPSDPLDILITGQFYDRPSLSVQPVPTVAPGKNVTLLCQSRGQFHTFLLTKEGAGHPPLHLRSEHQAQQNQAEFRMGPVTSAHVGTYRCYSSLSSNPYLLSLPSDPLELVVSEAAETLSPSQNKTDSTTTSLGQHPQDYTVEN
Chain of LILRB1 (Q8NHL6 24-461 limits assumed): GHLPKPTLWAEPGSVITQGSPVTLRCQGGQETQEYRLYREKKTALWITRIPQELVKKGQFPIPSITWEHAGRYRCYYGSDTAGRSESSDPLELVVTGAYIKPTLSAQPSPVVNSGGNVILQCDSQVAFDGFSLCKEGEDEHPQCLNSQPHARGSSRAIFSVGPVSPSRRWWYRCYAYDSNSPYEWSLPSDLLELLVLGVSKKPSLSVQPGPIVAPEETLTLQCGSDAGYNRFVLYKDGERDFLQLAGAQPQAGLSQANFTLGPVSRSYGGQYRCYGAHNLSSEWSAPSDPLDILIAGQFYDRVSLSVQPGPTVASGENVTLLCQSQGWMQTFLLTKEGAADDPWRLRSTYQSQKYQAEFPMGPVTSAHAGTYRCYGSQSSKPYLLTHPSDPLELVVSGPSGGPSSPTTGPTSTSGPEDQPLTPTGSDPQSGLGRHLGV
Chain of LILRA6 (Q6PI73 24-447 limits assumed): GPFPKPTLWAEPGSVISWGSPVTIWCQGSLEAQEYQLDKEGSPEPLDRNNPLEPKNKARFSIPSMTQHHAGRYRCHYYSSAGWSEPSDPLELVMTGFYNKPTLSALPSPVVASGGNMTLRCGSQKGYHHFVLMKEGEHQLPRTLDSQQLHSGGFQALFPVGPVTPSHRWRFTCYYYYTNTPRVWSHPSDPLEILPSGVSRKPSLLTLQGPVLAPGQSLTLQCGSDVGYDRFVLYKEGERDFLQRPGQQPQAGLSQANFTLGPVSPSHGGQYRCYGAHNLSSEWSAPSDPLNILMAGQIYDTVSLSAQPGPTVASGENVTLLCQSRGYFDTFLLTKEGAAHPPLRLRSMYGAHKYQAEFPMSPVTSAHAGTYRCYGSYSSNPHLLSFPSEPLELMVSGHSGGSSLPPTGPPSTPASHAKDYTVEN
Chain of LILRB3 (O75022 24-443 limits assumed): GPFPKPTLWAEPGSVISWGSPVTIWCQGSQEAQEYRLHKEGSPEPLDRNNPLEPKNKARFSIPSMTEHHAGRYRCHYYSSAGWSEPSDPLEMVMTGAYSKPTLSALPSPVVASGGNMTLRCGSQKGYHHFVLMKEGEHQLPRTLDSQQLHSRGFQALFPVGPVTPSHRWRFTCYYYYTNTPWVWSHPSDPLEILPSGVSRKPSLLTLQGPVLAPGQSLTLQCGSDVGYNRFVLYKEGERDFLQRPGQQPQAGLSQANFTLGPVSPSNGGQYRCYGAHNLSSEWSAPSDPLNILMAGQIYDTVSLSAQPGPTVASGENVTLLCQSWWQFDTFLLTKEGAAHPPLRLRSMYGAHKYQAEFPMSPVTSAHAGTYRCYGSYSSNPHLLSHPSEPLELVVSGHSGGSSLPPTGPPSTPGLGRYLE
Chain of LILRB2 (Q8N423 22-460 limits assumed): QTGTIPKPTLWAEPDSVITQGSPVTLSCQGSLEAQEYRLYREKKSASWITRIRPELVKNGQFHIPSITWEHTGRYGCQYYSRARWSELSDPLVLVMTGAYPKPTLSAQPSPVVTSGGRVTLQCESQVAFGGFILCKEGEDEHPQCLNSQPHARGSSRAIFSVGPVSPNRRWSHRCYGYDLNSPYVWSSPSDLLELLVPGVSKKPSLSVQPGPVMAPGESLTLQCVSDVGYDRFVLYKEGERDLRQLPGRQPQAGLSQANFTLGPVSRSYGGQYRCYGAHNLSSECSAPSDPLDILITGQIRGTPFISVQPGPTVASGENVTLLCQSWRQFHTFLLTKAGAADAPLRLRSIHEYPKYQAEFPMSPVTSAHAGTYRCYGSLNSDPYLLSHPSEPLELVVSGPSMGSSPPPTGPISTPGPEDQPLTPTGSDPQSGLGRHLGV

Kd [1] [nM] | koff [1] [s⁻¹] | kon [1] [M⁻¹ s⁻¹] | EC50 [2] | binding result [3] | binding result [4] | binding result [5] | binding result [6] | binding result [7] | binding result [8] | binding result [9] | binding result [10] | binding result [11] | binding result [12] | Binder
2.03 | 0.000294 | 145000 | 0.294 µg/mL and 1.96 nM | no binding | no binding | no binding | no binding | no binding | no binding | no binding | no binding | no binding | no binding | h193 antibody No. 19 (h193-H3 / h193-K1) (antibody, V domains shown) VH: EVQLVESGGGLVQPGGSLRLSCAASGFSLSSSYWISWVRQAPGKGLEWIGSIDSGSVGITYYATWAKGRFTISRDNSKNTLYLQMNSLRAEDTAVYYCARHGDNWALDLWGQGTLVTVSS VL: DIQMTQSPSTLSASVGDRVTITCQASQSINSWLAWYQQKPGKAPKLLIYKASTLASGVPSRFSGSGSGTEFTLTISSLQPDDFATYYCQHGYIRGDLDNVFGGGTKVEIK
5.83 | 0.000731 | 125000 | 0.461 µg/mL and 3.07 nM | no binding | no binding | no binding | no binding | no binding | no binding | no binding | no binding | no binding | no binding | h193 antibody No. 23 (h193-H4 / h193-K1) (antibody, V domains shown) VH: EVQLVESGGGLVQPGGSLRLSCAASGFSLSSSYWISWVRQAPGKGLEWVSSIDSGSVGITYYATWAKGRFTISRDNSKNTLYLQMNSLRAEDTAVYYCARHGDNWALDLWGQGTLVTVSS VL: DIQMTQSPSTLSASVGDRVTITCQASQSINSWLAWYQQKPGKAPKLLIYKASTLASGVPSRFSGSGSGTEFTLTISSLQPDDFATYYCQHGYIRGDLDNVFGGGTKVEIK
2.38 | 0.000362 | 152000 | 0.262 µg/mL and 1.74 nM | no binding | no binding | no binding | no binding | no binding | no binding | no binding | no binding | no binding | no binding | h193 antibody No. 32 (h193-H6 / h193-K2) (antibody, V domains shown) VH: EVQLVESGGGLVQPGGSLRLSCAASGFSLSSSYWISWVRQAPGKGLEWIGSIDSGSVGITYYATSAKGRFTISRDNSKNTLYLQMNSLRAEDTAVYYCARHGDNWALDLWGQGTLVTVSS VL: DLVMTQSPSTLSASVGDRVTITCQASQSINSWLAWYQQKPGKPPKLLIYKASTLASGVSSRFSGSGSGTEFTLTISSLQPDDVATYYCQHGYIRGDLDNVFGGGTKVEIK
1.67 | 0.00025 | 150000 | 0.272 µg/mL and 1.81 nM | no binding | no binding | no binding | no binding | no binding | no binding | no binding | no binding | no binding | no binding | h193 antibody No. 20 (h193-H3 / h193-K2) (antibody, V domains shown) VH: EVQLVESGGGLVQPGGSLRLSCAASGFSLSSSYWISWVRQAPGKGLEWIGSIDSGSVGITYYATWAKGRFTISRDNSKNTLYLQMNSLRAEDTAVYYCARHGDNWALDLWGQGTLVTVSS VL: DLVMTQSPSTLSASVGDRVTITCQASQSINSWLAWYQQKPGKPPKLLIYKASTLASGVSSRFSGSGSGTEFTLTISSLQPDDVATYYCQHGYIRGDLDNVFGGGTKVEIK
 |  |  | > 6 nM | no binding | no binding | no binding | no binding | no binding | no binding | no binding | no binding | no binding | no binding | h193 antibody No. 27 (h193-H5 / h193-K1) (antibody, V domains shown) VH: EVQLVESGGGLVQPGGSLRLSCAASGFSLSSSYWISWVRQAPGKGLEWIGVIDSGSVGITYYATWAKGRFTISRDNSKNTLYLQMNSLRAEDTAVYYCARHGDNWALDLWGQGTLVTVSS VL: DIQMTQSPSTLSASVGDRVTITCQASQSINSWLAWYQQKPGKAPKLLIYKASTLASGVPSRFSGSGSGTEFTLTISSLQPDDFATYYCQHGYIRGDLDNVFGGGTKVEIK
2.33 | 0.000345 | 148000 | 0.32 µg/mL and 2.13 nM | no binding | no binding | no binding | no binding | no binding | no binding | no binding | no binding | no binding | no binding | h193 antibody No. 33 (h193-H6 / h193-K3) (antibody, V domains shown) VH: EVQLVESGGGLVQPGGSLRLSCAASGFSLSSSYWISWVRQAPGKGLEWIGSIDSGSVGITYYATSAKGRFTISRDNSKNTLYLQMNSLRAEDTAVYYCARHGDNWALDLWGQGTLVTVSS VL: DIQMTQSPSTLSASVGDRVTITCRASQSINSWLAWYQQKPGKAPKLLIYKASTLASGVPSRFSGSGSGTEFTLTISSLQPDDFATYYCQHGYIRGDLDNVFGGGTKVEIK
4.41 | 0.000595 | 135000 | 0.467 µg/mL and 3.11 nM | no binding | no binding | no binding | no binding | no binding | no binding | no binding | no binding | no binding | no binding | h193 antibody No. 24 (h193-H4 / h193-K2) (antibody, V domains shown) VH: EVQLVESGGGLVQPGGSLRLSCAASGFSLSSSYWISWVRQAPGKGLEWVSSIDSGSVGITYYATWAKGRFTISRDNSKNTLYLQMNSLRAEDTAVYYCARHGDNWALDLWGQGTLVTVSS VL: DLVMTQSPSTLSASVGDRVTITCQASQSINSWLAWYQQKPGKPPKLLIYKASTLASGVSSRFSGSGSGTEFTLTISSLQPDDVATYYCQHGYIRGDLDNVFGGGTKVEIK
 |  |  |  | no binding | no binding | no binding | no binding | no binding | no binding | no binding | no binding | no binding | no binding | h193 antibody No. 28 (h193-H5 / h193-K2) (antibody, V domains shown) VH: EVQLVESGGGLVQPGGSLRLSCAASGFSLSSSYWISWVRQAPGKGLEWIGVIDSGSVGITYYATWAKGRFTISRDNSKNTLYLQMNSLRAEDTAVYYCARHGDNWALDLWGQGTLVTVSS VL: DLVMTQSPSTLSASVGDRVTITCQASQSINSWLAWYQQKPGKPPKLLIYKASTLASGVSSRFSGSGSGTEFTLTISSLQPDDVATYYCQHGYIRGDLDNVFGGGTKVEIK
2.61 | 0.000376 | 144000 | 0.314 µg/mL and 2.09 nM | no binding | no binding | no binding | no binding | no binding | no binding | no binding | no binding | no binding | no binding | h193 antibody No. 31 (h193-H6 / h193-K1) (antibody, V domains shown) VH: EVQLVESGGGLVQPGGSLRLSCAASGFSLSSSYWISWVRQAPGKGLEWIGSIDSGSVGITYYATSAKGRFTISRDNSKNTLYLQMNSLRAEDTAVYYCARHGDNWALDLWGQGTLVTVSS VL: DIQMTQSPSTLSASVGDRVTITCQASQSINSWLAWYQQKPGKAPKLLIYKASTLASGVPSRFSGSGSGTEFTLTISSLQPDDFATYYCQHGYIRGDLDNVFGGGTKVEIK
